Here are results for four molecules from patent EP4644426A1 (Gan & Lee Pharmaceuticals Co., Ltd., dated 2025).

Experiment [1] has as its target human FXIa factor (human) (UniProt P03951). Description: cell-based or functional assay.
Experiment [2] has the same target. Nature of the experiment: cell-based or functional assay. This is another data set of the same source.
The target is the same in experiment [3]. Description: cell-based or functional assay. The source holds these as a separate data set.
Experiment [4] has the same target. Description: Biacore 8K (SPR), human FXIa in 2-fold dilution series. A general note: Surface plasmon resonance follows binding to a sensor surface in real time, without labels.
Experiment [5] concerns the target T1, human FXIa factor (human, UniProt P03951 19-625). Description: cell-based or functional assay.
Experiment [6] addresses T1, human FXIa factor. Description: cell-based or functional assay. This is another data set of the same source.
Experiment [7] concerns the target T1, human FXIa factor. Nature of the experiment: cell-based or functional assay. The source holds these as a separate data set.
In experiment [8] the target is T1, human FXIa factor. Description: Biacore 8K (SPR), human FXIa in 2-fold dilution series.

Read-outs that look alike come from different tables or passages of the source.

Turning to MAA868 (antibody), the FXIa kit Activity Assay (nM), IC50 in experiment [1] came out at 12.7 nM. In experiment [2], this molecule came in with an FXIa Kit Activity Assay (nM), IC50 (First Batch) of 11.2 nM; an FXIa Kit Activity Assay (nM), IC50 (Second Batch) of 11.7 nM; an FXIa Kit Activity Assay (nM), IC50 (Third Batch) of 13.3 nM; an FXIa kit Activity Assay (nM), IC50 of 28.9 nM. Besides, in experiment [2], the IC50(nM) from S2366 Assay came to 67.3 nM, the IC50(nM) from S2366 assay (First Batch) stood at 118 nM, the IC50(nM) from S2366 assay (Fourth Batch) worked out at 64.7 nM and the IC50(nM) from S2366 assay (Second Batch) turned out to be 83.6 nM. In experiment [2], this molecule had an IC50(nM) from S2366 assay (Third Batch) of 106 nM and an OD405nm, S2366 activity assay, antibody at 20µg/mL of 0.449 OD405nm. Besides, the IC50(nM) from S2366 Assay in experiment [3] came out at 44.9 nM. In addition, in experiment [4], the Kd (as a rule, the constant that tells how readily two partners part at equilibrium) was found to be 0.00717 nM; the koff – broadly, a measure of how fast the partners let go of each other – amounted to 8.48e-06 s⁻¹; the kon (commonly the second-order rate constant of association) amounted to 1.18e+06 M⁻¹ s⁻¹.

B1: 11E8-sy (antibody, V domains shown)
VH: EVKLQESGPELVKTGASVKISCKASGYSFTGYFMNWVKQSHGKSLEWIGFINCYNGATSYNQKFKGKATFTVDASSSSAYMQFNSLTSEDSAVYYCARTISTGDSFDYWGQGSTLTVSS
VL: DIVMTQSTSYLSVSLGGRVTITCKASDHINNWLAWYQQKPGDAPSLLISGASRLETGVPSRFSGSGSGKDYTLSITSLQTEDVATYYCQQYWTTPFTFGSGTKLEIK
For B1, the “OD405nm, S2366 activity assay, antibody at 20µg/mL” value with human FXIa factor [5] was 0.294 OD405nm.

B2: humanized antibody 29E10C4-1 (antibody, human IgG1, kappa, V domains shown)
VH: QVQLVQSGAEVKKPGSSVKVSCKASGGTFSDYFIEWVRQAPGQGLEWMGVINPGNDVTNYNEKFKGRVTITADKSTSTAYMELSSLRSEDTAVYYCARSAGNYENSMDFWGQGTTVTVSS
VL: EIVLTQSPATLSLSPGERATLSCKASQSVSNDVGWYQQKPGQAPRLLIYYTSNRYTGIPARFSGSGSGTDFTLTISSLEPEDFAVYYCQQDYHFPLTFGGGTKVEIKR
notes: 29E10C4-1 is the only humanized form of that clone
On to B2, for which the “FXIa kit Activity Assay (nM), IC50” value with human FXIa factor [6] was found to be 0.545 nM. Besides, the “IC50 (nM) from S2366 Assay” value with human FXIa factor [7] was 24.5 nM. In the experiment with human FXIa factor [8], this molecule displayed a Kd of 0.00145 nM, an off-rate (koff) of 1.96e-05 s⁻¹ and a kon of 1.35e+07 M⁻¹ s⁻¹.

B3: 29E10C4-sy (antibody, V domains shown)
VH: QVKLEESGAELVRPGTSVKVSCKASGYAFTDYFIEWIKQRPGQGLEWIGVINPGNDVTNYNEKFKGKATLTVDKSSTTAYMQLSSLTSDDSAVYFCTRSAGNYENSMDFWGQGTSVTVSS
VL: DIVLTQSPKFLLVSAGDRVTITCKASQSVSNDVGWYQQKPGQSPKLLIYYTSNRYTGVPDRFTGSGYGTDFTFTISSVQAEDLAVYFCQQDYHFPLTFGAGTKLELK
B3: the “FXIa kit Activity Assay (nM), IC50” value in the experiment with human FXIa factor [6] was 0.248 nM. Further, in the experiment with human FXIa factor [5], the “OD405nm, S2366 activity assay, antibody at 20µg/mL” value stood at 0.198 OD405nm.
